By Kd is commonly meant the constant that tells how readily two partners part at equilibrium. High values mean lower affinity, low ones higher affinity. Broadly, the koff is the rate constant with which the complex falls apart. Low values mean slow dissociation, high ones fast dissociation. In general, kon refers to a measure of how fast the partners come together. High values mean faster complex formation, low ones slower complex formation. What is called stoichiometry N is a count of units in the complex or per binding partner.

The results in this text go back to article PMC6820745, “Structural and thermodynamic basis for the recognition of the substrate-binding cleft on hen egg lysozyme by a single-domain antibody” (Scientific Reports, 2019).

What all share (settings): both partners purified
Experiment [1] addresses T1, hen egg lysozyme (hen, UniProt P00698 19-147).
T1 construct: hen egg lysozyme (HEL), bought, used without further purification; also called HEL; source: bought: Wako Pure Chemical (Cat. No. 126-02671)
Nature of the experiment: SPR; HEL immobilised on CM5 chip (200 RU), VHH flowed over, multi-cycle, 10 °C, PBS with 0.005% Tween 20, global fit to a 1:1 binding model. On the technique in general: SPR reads the build-up and loss of mass on a sensor chip optically.

The target of experiment [2] is T1, hen egg lysozyme. The experiment can be described thus: SPR; HEL immobilised on CM5 chip (200 RU), VHH flowed over, multi-cycle, 22 °C, PBS with 0.005% Tween 20, global fit to a 1:1 binding model.
The target in experiment [3] is T1, hen egg lysozyme. The experiment can be described thus: SPR; HEL immobilised on CM5 chip (200 RU), VHH flowed over, multi-cycle, 26 °C, PBS with 0.005% Tween 20, global fit to a 1:1 binding model.
Experiment [4] deals with T1, hen egg lysozyme. The experiment can be described thus: ITC; iTC200, 25 °C, PBS; VHH (10 µM) in the cell titrated with HEL (100 µM); 1:1 binding model; two independent measurements.
Experiment [5] addresses T1, hen egg lysozyme. Nature of the experiment: SPR; HEL immobilised on CM5 chip (200 RU), VHH flowed over, multi-cycle, 30 °C, PBS with 0.005% Tween 20, global fit to a 1:1 binding model.
In experiment [6] the target is T1, hen egg lysozyme. The experiment can be described thus: SPR; HEL immobilised on CM5 chip (200 RU), VHH flowed over, multi-cycle, 18 °C, PBS with 0.005% Tween 20, global fit to a 1:1 binding model.
Experiment [7] has as its target T1, hen egg lysozyme. Nature of the experiment: SPR; HEL immobilised on CM5 chip (200 RU), VHH flowed over, multi-cycle, 14 °C, PBS with 0.005% Tween 20, global fit to a 1:1 binding model.
Experiment [8] addresses T2, hen egg lysozyme (Gallus gallus (hen), UniProt P00698).
T2 construct: hen egg lysozyme (lysozyme C), bought from Wako Pure Chemical; also called HEL; source: bought: Wako Pure Chemical (Cat. No. 126-02671), used without further purification
Nature of the experiment: SPR; Biacore T200; HEL immobilised on CM5 chip (200 RU); VHH flowed over; 25 °C; PBS with 0.005% Tween 20; global fit to a 1:1 binding model. The essentials: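 Binding of the His6-tagged single-domain antibody, expressed in E. coli BL21(DE3) and purified by Ni-NTA and size-exclusion chromatography, was measured by surface plasmon resonance on a Biacore T200 against hen egg lysozyme immobilised on a CM5 chip (200 RU). Runs were at 25 °C in PBS with 0.005% Tween 20, with 300 s contact, 600 s dissociation and regeneration in 1.0 M Arg-HCl pH 4.4. Antibody concentrations were adjusted per mutant. Kd, kon and koff came from global fitting to a 1:1 binding model in BiaEvaluation.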

The target of experiment [9] is T2, hen egg lysozyme. The experiment can be described thus: SPR; as a1, but KD from the responses in equilibrium (Scatchard plot, 1:1 model); HEL immobilised; 25 °C; PBS with 0.005% Tween 20.
The target in experiment [10] is T1, hen egg lysozyme. Nature of the experiment: SPR; HEL immobilised on CM5 chip (200 RU), VHH flowed over, 10 °C, PBS with 0.005% Tween 20, steady-state responses (Scatchard plot), 1:1 binding model.
The target in experiment [11] is T1, hen egg lysozyme. Nature of the experiment: SPR; HEL immobilised on CM5 chip (200 RU), VHH flowed over, multi-cycle, 18 °C, PBS with 0.005% Tween 20, global fit to a 1:1 binding model. The source holds these as a separate data set.
For experiment [12], the target named is T1, hen egg lysozyme. Nature of the experiment: SPR; HEL immobilised on CM5 chip (200 RU), VHH flowed over, multi-cycle, 14 °C, PBS with 0.005% Tween 20, global fit to a 1:1 binding model. The source holds these as a separate data set.
Experiment [13] concerns the target T1, hen egg lysozyme. Nature of the experiment: SPR; HEL immobilised on CM5 chip (200 RU), VHH flowed over, 14 °C, PBS with 0.005% Tween 20, steady-state responses (Scatchard plot), 1:1 binding model.
The target of experiment [14] is T1, hen egg lysozyme. The experiment can be described thus: SPR; HEL immobilised on CM5 chip (200 RU), VHH flowed over, 26 °C, PBS with 0.005% Tween 20, steady-state responses (Scatchard plot), 1:1 binding model.
Experiment [15] concerns the target T1, hen egg lysozyme. The experiment can be described thus: SPR; HEL immobilised on CM5 chip (200 RU), VHH flowed over, 22 °C, PBS with 0.005% Tween 20, steady-state responses (Scatchard plot), 1:1 binding model.
Experiment [16] addresses T1, hen egg lysozyme. The experiment can be described thus: SPR; HEL immobilised on CM5 chip (200 RU), VHH flowed over, 30 °C, PBS with 0.005% Tween 20, steady-state responses (Scatchard plot), 1:1 binding model.
Experiment [17] addresses T1, hen egg lysozyme. The experiment can be described thus: SPR; HEL immobilised on CM5 chip (200 RU), VHH flowed over, multi-cycle, 22 °C, PBS with 0.005% Tween 20, global fit to a 1:1 binding model. This is another data set of the same source.
The target in experiment [18] is T1, hen egg lysozyme. The experiment can be described thus: SPR; HEL immobilised on CM5 chip (200 RU), VHH flowed over, multi-cycle, 10 °C, PBS with 0.005% Tween 20, global fit to a 1:1 binding model. The source holds these as a separate data set.
In experiment [19] the target is T1, hen egg lysozyme. Nature of the experiment: SPR; HEL immobilised on CM5 chip (200 RU), VHH flowed over, multi-cycle, 26 °C, PBS with 0.005% Tween 20, global fit to a 1:1 binding model. The source holds these as a separate data set.
Experiment [20] addresses T1, hen egg lysozyme. The experiment can be described thus: SPR; HEL immobilised on CM5 chip (200 RU), VHH flowed over, 18 °C, PBS with 0.005% Tween 20, steady-state responses (Scatchard plot), 1:1 binding model.

T1 sequence (P00698 19-147): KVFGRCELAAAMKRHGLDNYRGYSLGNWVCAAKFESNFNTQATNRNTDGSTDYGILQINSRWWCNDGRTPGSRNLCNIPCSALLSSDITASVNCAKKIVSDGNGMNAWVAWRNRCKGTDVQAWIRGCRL
T2 sequence (P00698 19-147): as above

B1: D3-L11 (wild type), VHH specific for hen egg lysozyme (VHH)
VHH: DVQLVESGGGSVQAGGSLRLSCAASGSTDSIEYMTWFRQAPGKAREGVAALYTHTGNTYYTDSVKGRFTISQDKAKNMAYLRMDSVKSEDTAIYTCGATRKYVPVRFALDQSSYDYWGQGTQVTVSS
notes: also called WT; WT antibody; source: E. coli BL21(DE3), purified (Ni-NTA, SEC)
With B1, the Kd in experiment [1] was determined as 0.0267 nM; in [2], 0.0897 nM; in experiment [3] it was 0.127 nM; in [4], 3.8 nM; in experiment [5], 0.177 nM; in [6], 0.0549 nM. For the same molecule, the Kd in experiment [7] stood at 0.0395 nM. The koff stood at 7.52e-05 s⁻¹ in experiment [1]; 0.000492 s⁻¹ in experiment [2]; 0.000847 s⁻¹ in experiment [3]; 0.0015 s⁻¹ in experiment [5]; 0.000274 s⁻¹ in [6]; 0.000139 s⁻¹ in [7]. In addition, the on-rate constant (kon) in experiment [1] was 2.81e+06 M⁻¹ s⁻¹; in [2] it was 5.48e+06 M⁻¹ s⁻¹; in [3] it was 6.81e+06 M⁻¹ s⁻¹; in [5] it was 8.48e+06 M⁻¹ s⁻¹; in experiment [6], 4.99e+06 M⁻¹ s⁻¹; in experiment [7] it was 3.52e+06 M⁻¹ s⁻¹. In addition, the “stoichiometry N” value in experiment [4] turned out to be 0.88.

B2: D3-L11 E32A (VHH)
VHH: DVQLVESGGGSVQAGGSLRLSCAASGSTDSIAYMTWFRQAPGKAREGVAALYTHTGNTYYTDSVKGRFTISQDKAKNMAYLRMDSVKSEDTAIYTCGATRKYVPVRFALDQSSYDYWGQGTQVTVSS
notes: as the VHH chain of m2 with the stated change; source: E. coli BL21(DE3), purified (Ni-NTA, SEC)
Regarding B2, in [8], the dissociation constant (Kd) is 1.87 nM, the koff worked out at 0.012 s⁻¹ and the association rate constant (kon) amounted to 6.43e+06 M⁻¹ s⁻¹.

B3: D3-L11 T55A (VHH)
VHH: DVQLVESGGGSVQAGGSLRLSCAASGSTDSIEYMTWFRQAPGKAREGVAALYTHAGNTYYTDSVKGRFTISQDKAKNMAYLRMDSVKSEDTAIYTCGATRKYVPVRFALDQSSYDYWGQGTQVTVSS
notes: as for B2
In [8], B3 gave a dissociation constant Kd of 2.99 nM, a koff of 0.0113 s⁻¹ and a kon of 3.77e+06 M⁻¹ s⁻¹.

B4: D3-L11 S113A (VHH)
VHH: DVQLVESGGGSVQAGGSLRLSCAASGSTDSIEYMTWFRQAPGKAREGVAALYTHTGNTYYTDSVKGRFTISQDKAKNMAYLRMDSVKSEDTAIYTCGATRKYVPVRFALDQSAYDYWGQGTQVTVSS
notes: as for B2
In [8], B4 showed an equilibrium dissociation constant (Kd) of 1.61 nM, an off-rate constant (koff) of 0.00831 s⁻¹ and an on-rate constant (kon) of 5.17e+06 M⁻¹ s⁻¹.

B5: D3-L11 P104A (VHH)
VHH: DVQLVESGGGSVQAGGSLRLSCAASGSTDSIEYMTWFRQAPGKAREGVAALYTHTGNTYYTDSVKGRFTISQDKAKNMAYLRMDSVKSEDTAIYTCGATRKYVAVRFALDQSSYDYWGQGTQVTVSS
notes: as for B2
With B5, binding in experiment [9] was characterised by a dissociation constant (Kd) of 44.8 ± 19 nM. For the same molecule, in experiment [8], the dissociation constant (Kd) came to 13 nM, the off-rate (koff) was determined as 0.226 s⁻¹ and the association rate constant (kon) is 1.74e+07 M⁻¹ s⁻¹.

B6: D3-L11 R106A (VHH)
VHH: DVQLVESGGGSVQAGGSLRLSCAASGSTDSIEYMTWFRQAPGKAREGVAALYTHTGNTYYTDSVKGRFTISQDKAKNMAYLRMDSVKSEDTAIYTCGATRKYVPVAFALDQSSYDYWGQGTQVTVSS
notes: as for B2
In experiment [8], B6 showed a Kd of 1.65 nM, an off-rate constant (koff) of 0.00183 s⁻¹ and a kon of 1.11e+06 M⁻¹ s⁻¹.

B7: D3-L11 K101A (VHH)
VHH: DVQLVESGGGSVQAGGSLRLSCAASGSTDSIEYMTWFRQAPGKAREGVAALYTHTGNTYYTDSVKGRFTISQDKAKNMAYLRMDSVKSEDTAIYTCGATRAYVPVRFALDQSSYDYWGQGTQVTVSS
notes: as for B2
As for B7, in experiment [8], the Kd is 0.0911 nM, the koff came to 0.000687 s⁻¹ and the kon is 7.54e+06 M⁻¹ s⁻¹.

B8: D3-L11 H54A (VHH)
VHH: DVQLVESGGGSVQAGGSLRLSCAASGSTDSIEYMTWFRQAPGKAREGVAALYTATGNTYYTDSVKGRFTISQDKAKNMAYLRMDSVKSEDTAIYTCGATRKYVPVRFALDQSSYDYWGQGTQVTVSS
notes: as for B2
In experiment [8], B8 showed a dissociation constant Kd of 2.65 nM, a koff of 0.00921 s⁻¹ and a kon of 3.48e+06 M⁻¹ s⁻¹.

B9: D3-L11 F107A (VHH)
VHH: DVQLVESGGGSVQAGGSLRLSCAASGSTDSIEYMTWFRQAPGKAREGVAALYTHTGNTYYTDSVKGRFTISQDKAKNMAYLRMDSVKSEDTAIYTCGATRKYVPVRAALDQSSYDYWGQGTQVTVSS
notes: as for B2
In the case of B9, in experiment [8], binding was put at a Kd of 1.63 nM, the koff stood at 0.0147 s⁻¹ and the kon amounted to 8.99e+06 M⁻¹ s⁻¹.

B10: D3-L11 D115A (VHH)
VHH: DVQLVESGGGSVQAGGSLRLSCAASGSTDSIEYMTWFRQAPGKAREGVAALYTHTGNTYYTDSVKGRFTISQDKAKNMAYLRMDSVKSEDTAIYTCGATRKYVPVRFALDQSSYAYWGQGTQVTVSS
notes: as for B2
As to B10, in [8], the Kd stood at 0.156 nM, the dissociation rate constant (koff) was determined as 0.000956 s⁻¹ and the association rate constant (kon) came out at 6.11e+06 M⁻¹ s⁻¹.

B11: D3-L11 Y52A (VHH)
VHH: DVQLVESGGGSVQAGGSLRLSCAASGSTDSIEYMTWFRQAPGKAREGVAALATHTGNTYYTDSVKGRFTISQDKAKNMAYLRMDSVKSEDTAIYTCGATRKYVPVRFALDQSSYDYWGQGTQVTVSS
notes: the substitution is still to be applied; source: E. coli BL21(DE3), purified (Ni-NTA, SEC)
With B11, the Kd was 60.5 ± 4.3 nM in experiment [10]; 1000 nM in experiment [4]; 33 nM in [11]; 26.5 nM in [12]; 71.4 ± 5.3 nM in experiment [13]; 119 ± 9 nM in experiment [14]. For the same molecule, the equilibrium dissociation constant (Kd) is 99.2 ± 7.4 nM in [15]; 142 ± 10 nM in experiment [16]; 40.8 nM in experiment [17]; 21.2 nM in experiment [18]; 52.9 nM in experiment [19]; 83.4 ± 6.5 nM in [20]. In experiment [4], the “stoichiometry N” value worked out at 0.93. Moreover, the koff in experiment [11] was found to be 0.0731 s⁻¹; in experiment [12], 0.0515 s⁻¹; in [17], 0.102 s⁻¹; in experiment [18], 0.037 s⁻¹; in experiment [19], 0.144 s⁻¹. Further, the on-rate constant (kon) was 2.21e+06 M⁻¹ s⁻¹ in experiment [11]; 1.94e+06 M⁻¹ s⁻¹ in [12]; 2.5e+06 M⁻¹ s⁻¹ in experiment [17]; 1.74e+06 M⁻¹ s⁻¹ in experiment [18]; 2.72e+06 M⁻¹ s⁻¹ in experiment [19].
